# B1: Azoarcus group I ribozyme (parent)
# chain: GUGCCUUGCGCCGGGAAACCACGCAAGGGAUGGUGUCAAAUUCGGCGAAACCUAAGCGCCCGCCCGGGCGUAUGGCAACGCCGAGCCAAGCUUCGGCGCCUGCGCCGAUGAAGGUGUAGAGACUAGACGGCACCCACCUAAGGCAAACGCUAUGGUGAAGGCAUAGUCCAGGGAGUGGCGAAAGUCACACAAACCGG
# Variants of: B1
# Test: reverse-splicing fitness (ratio to wild type); higher = more active; in vitro selection; Mg2+ level not given
# Summary of the method: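 An in vitro group I ribozyme library with randomized positions was T7-transcribed and gel-purified. In triplicate, 10 pmol RNA in EPPS pH 7.5 was reacted with 50 pmoles of a 30-nt RNA substrate for 1 h at 37 °C across several added MgCl2 levels (1–48 mM), then stopped with EDTA. Products were reverse transcribed from a substrate-complementary primer, PCR-amplified and sequenced (HiSeq 4000). Fitness is a variant's read proportion after selection over that before, normalised to wild type.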
row,Variant,reverse-splicing fitness
1,C82A A111G A145U U176C,0.249
2,C82A A111G A145U U176A,0.179
3,C82A A111G A145U U176G,0.0692
4,C82A A111G A145G C150U C169A U176A,0.0167
5,C82A A111G A145G C150U C169A U176G,0.00696
6,C82A A111G A145G C150U C169A U176C,0.0181
7,C82A A111G A145G C150A C169U U176G,0.00672
8,C82A A111G A145G C150A C169U U176A,0.0159
9,C82A A111G A145G C150A C169U U176C,0.0164
10,C82A A111G C150G C169A U176C,0.0122
11,C82A A111G C150G C169A U176G,0.00753
12,C82A A111G C150G C169A U176A,0.0113
13,C82A A111G A145U,0.431
14,C82A A111G A145U C150G C169A U176A,0.0104
15,C82A A111G A145U C150G C169A U176C,0.0104
16,C82A A111G A145U C150G C169A U176G,0.00684
17,C82A A111G A145U C150A C169A,0.0101
18,C82A A111G A145U C150A C169U,0.0106
19,C82A A111G A145U C150A C169G,0.00826
20,C82A A111G C150A C169G U176A,0.0221
21,C82A A111G C150A C169G U176G,0.00691
22,C82A A111G C150A C169G U176C,0.0249
23,C82A A111G A145G C150U C169G U176A,0.0156
24,C82A A111G A145G C150U C169G U176C,0.0198

row,Variant,reverse-splicing fitness
1,C82A A111G A145G C150U C169G U176G,0.00644
2,C82A A111G A145U C150U C169G U176C,0.015
3,C82A A111G A145U C150U C169G U176G,0.00627
4,C82A A111G A145U C150U C169G U176A,0.0131
5,C82A A111G C150G C169A,0.0102
6,C82A A111G C150G C169G,0.00678
7,C82A A111G C150G C169U,0.0107
8,C82A A111G A145G C150U C169G,0.0102
9,C82A A111G A145G C150U C169A,0.0115
10,C82A A111G A145G C150U C169U,0.0135
11,C82A A111G A145G C150G U176C,0.0188
12,C82A A111G A145G C150G U176A,0.00955
13,C82A A111G A145G C150G U176G,0.00721
14,C82A A111G A145U C150A C169G U176A,0.0174
15,C82A A111G A145U C150A C169G U176G,0.00624
16,C82A A111G A145U C150A C169G U176C,0.016
17,C82A A111G C150U C169U,0.0122
18,C82A A111G C150U C169G,0.00992
19,C82A A111G C150U C169A,0.011
20,C82A A111G A145U C150U C169A U176C,0.0114
21,C82A A111G A145U C150U C169A U176A,0.0133
22,C82A A111G A145U C150U C169A U176G,0.00665
23,C82A A111G A145U C150U C169U,0.0118
24,C82A A111G A145U C150U C169A,0.00951

row,Variant,reverse-splicing fitness
1,C82A A111G A145U C150U C169G,0.00926
2,C82A A111G A145G C150A U176A,0.0293
3,C82A A111G A145G C150A U176G,0.0122
4,C82A A111G A145G C150A U176C,0.0453
5,C82A A111G C150U,0.205
6,C82A A111G C150A,0.0352
7,C82A A111G C150G,0.024
8,C82A A111G A145G C150G C169U,0.00932
9,C82A A111G A145G C150G C169G,0.00786
10,C82A A111G A145G C150G C169A,0.0093
11,C82A A111G C150G C169G U176C,0.00543
12,C82A A111G C150G C169G U176G,0.00592
13,C82A A111G C150G C169G U176A,0.00836
14,C82A A111G C150A C169U U176G,0.00815
15,C82A A111G C150A C169U U176A,0.0172
16,C82A A111G C150A C169U U176C,0.014
17,C82A A111G A145U C150G C169G,0.00749
18,C82A A111G A145U C150G C169A,0.00833
19,C82A A111G A145U C150G C169U,0.00964
20,C82A A111G C150G U176G,0.004
21,C82A A111G C150G U176A,0.00793
22,C82A A111G C150G U176C,0.0152
23,C82A A111G A145G C150G C169G U176A,0.0112
24,C82A A111G A145G C150G C169G U176G,0.00597

row,Variant,reverse-splicing fitness
1,C82A A111G A145G C150G C169G U176C,0.011
2,C82A A111G A145U C169A,0.00788
3,C82A A111G A145U C169U,0.0125
4,C82A A111G A145U C169G,0.00852
5,C82A A111G A145G C150U C169U U176C,0.0135
6,C82A A111G A145G C150U C169U U176G,0.00655
7,C82A A111G A145G C150U C169U U176A,0.0138
8,C82A A111G C150U U176A,0.0842
9,C82A A111G C150U U176G,0.0264
10,C82A A111G C150U U176C,0.127
11,C82A A111G A145U C169A U176G,0.00504
12,C82A A111G A145U C169A U176C,0.0104
13,C82A A111G A145U C169A U176A,0.0131
14,C82A A111G A145U C150G C169U U176G,0.00668
15,C82A A111G A145U C150G C169U U176C,0.0117
16,C82A A111G A145U C150G C169U U176A,0.00709
17,C82A A111G A145G C169A,0.0102
18,C82A A111G A145G C169G,0.00988
19,C82A A111G A145G C169U,0.0126
20,C82A A111G A145G C150G C169A U176G,0.00909
21,C82A A111G A145G C150G C169A U176A,0.0148
22,C82A A111G A145G C150G C169A U176C,0.0154
23,C82A A111G C150A U176A,0.0284
24,C82A A111G C150A U176G,0.0144

row,Variant,reverse-splicing fitness
1,C82A A111G C150A U176C,0.0387
2,C82A A111G C150A C169A,0.0109
3,C82A A111G C150A C169G,0.00926
4,C82A A111G C150A C169U,0.0114
5,C82A A111G A145G C169G U176G,0.00515
6,C82A A111G A145G C169G U176C,0.0288
7,C82A A111G A145G C169G U176A,0.0194
8,C82A A111G A145U C150A C169U U176C,0.0109
9,C82A A111G A145U C150A C169U U176G,0.00627
10,C82A A111G A145U C150A C169U U176A,0.0132
11,C82A A111G A145U C150G C169G U176C,0.00567
12,C82A A111G A145U C150G C169G U176A,0.00771
13,C82A A111G A145U C150G C169G U176G,0.00584
14,C82A A111G A145G C150A C169G U176G,0.00702
15,C82A A111G C150G C169U U176G,0.00537
16,C82A A111G C150G C169U U176A,0.00656
17,C82A A111G C150G C169U U176C,0.0125
18,C82A A111G A145U C150U C169U U176C,0.0116
19,C82A A111G A145U C150U C169U U176G,0.00658
20,C82A A111G A145U C150U C169U U176A,0.014
21,C82A A111G A145U C150U U176G,0.0305
22,C82A A111G A145U C150U U176C,0.166
23,C82A A111G A145U C150U U176A,0.106
24,C82A A111G C150U C169A U176G,0.00716

row,Variant,reverse-splicing fitness
1,C82A A111G C150U C169A U176A,0.0185
2,C82A A111G C150U C169A U176C,0.0164
3,C82A A111G A145G C150A C169U,0.0109
4,C82A A111G A145G U176C,0.245
5,C82A A111G A145G U176A,0.184
6,C82A A111G A145G U176G,0.0444
7,C82A A111G A145U C150G U176C,0.0181
8,C82A A111G A145U C150G U176G,0.0047
9,C82A A111G A145U C150G U176A,0.00973
10,C82A A111G C150U C169U U176C,0.0136
11,C82A A111G C150U C169U U176G,0.00623
12,C82A A111G C150U C169U U176A,0.0148
13,C82A A111G A145G C169U U176C,0.0149
14,C82A A111G A145G C169U U176A,0.0137
15,C82A A111G A145G C169U U176G,0.00606
16,C82A A111G A145G C150G C169U U176A,0.0112
17,C82A A111G A145G C150G C169U U176C,0.0123
18,C82A A111G A145G C150G C169U U176G,0.00825
19,C82A A111G A145G C169A U176G,0.00591
20,C82A A111G A145G C169A U176C,0.0253
21,C82A A111G A145G C169A U176A,0.0201
22,C82A A111G A145U C169G U176C,0.0131
23,C82A A111G A145U C169G U176A,0.011
24,C82A A111G A145U C169G U176G,0.00511

row,Variant,reverse-splicing fitness
1,C82A A111G A145G C150U U176G,0.0317
2,C82A A111G A145G C150U U176C,0.174
3,C82A A111G A145G C150U U176A,0.115
4,C82A A111G A145U C169U U176A,0.0124
5,C82A A111G A145U C169U U176G,0.0055
6,C82A A111G A145U C169U U176C,0.0133
7,C82A A111G A145U C150A C169A U176A,0.0124
8,C82A A111G A145U C150A C169A U176G,0.00674
9,C82A A111G A145U C150A C169A U176C,0.0106
10,C82A A111G A145G C150G,0.0329
11,C82A A111G A145G C150U,0.32
12,C82A A111G A145U C150A,0.0313
13,C82A A111G A145U C150U,0.254
14,C82A A111G A145U C150G,0.0319
15,C82A A111G C150A C169A U176A,0.0203
16,C82A A111G C150A C169A U176C,0.0218
17,C82A A111G C150A C169A U176G,0.0074
18,C82A A111G C150U C169G U176A,0.0188
19,C82A A111G C150U C169G U176C,0.0194
20,C82A A111G C150U C169G U176G,0.00633
21,C82A A111G A145U C150A U176A,0.0241
22,C82A A111G A145U C150A U176G,0.0106
23,C82A A111G A145U C150A U176C,0.03
